Test results reported in patent publication US20250122288A1 (ARGENX, published 2025).
One block for each binder: values may come before it.

Columns and labels:
[1] = biological target: T1, neonatal Fc receptor (FcRn) (human, UniProt P55899 24-365; P61769 21-119); test: FcRn occupancy assay, 'previous studies'
T1 construct: whole, on cells; also called human FcRn

[2] = biological target: T1, neonatal Fc receptor (FcRn); test: in vitro FcRn occupancy assay
[3] = biological target: T1, neonatal Fc receptor (FcRn); test: in vitro FcRn occupancy assay; reference implied to be two-armed TA-HEL-ABDEG

IC50 [1]: > 100 nM
B1: mAb37-ABDEG (parental) (antibody)
chain 1: QVQLVQSGAEVMKPGSSVKVSCKASGYTFSWYHLEWVRQAPGHGLEWMGEIDPGTFTTNYNEKFKARVTFTADTSTSTAYMELSSLRSEDTAVYYCARFSHFSGSNHDYFDYWGQGTLVTVSSASTKGPSVFPLAPSSKSTSGGTAALGCLVKDYFPEPVTVSWNSGALTSGVHTFPAVLQSSGLYSLSSVVTVPSSSLGTQTYICNVNHKPSNTKVDKKVEPKSCDKTHTCPPCPAPELLGGPSVFLFPPKPKDTLYITREPEVTCVVVDVSHEDPEVKFNWYVDGVEVHNAKTKPREEQYNSTYRVVSVLTVLHQDWLNGKEYKCKVSNKALPAPIEKTISKAKGQPREPQVYTLPPSRDELTKNQVSLTCLVKGFYPSDIAVEWESNGQPENNYKTTPPVLDSDGSFFLYSKLTVDKSRWQQGNVFSCSVMHEALKFHYTQKSLSLSPG
chain 2: EIVMTQSPATLSVSPGERATLSCRASQSIGTNIHWYQQKPGQAPRLLIYYASESISGIPARFSGSGSGTEFTLTISSLQSEDFAVYYCQQSWSWPTTFGGGTKVEIKRTVAAPSVFIFPPSDEQLKSGTASVVCLLNNFYPREAKVQWKVDNALQSGNSQESVTEQDSKDSTYSLSSTLTLSKADYEKHKVYACEVTHQGLSSPVTKSFNRGEC

IC50 [2]: 14 nM
B2: bivalent (TA) HEL-ABDEG (antibody, human IgG1, kappa)
heavy: QVQLQESGPGLVRPSQTLSLTCTVSGFSLTGYGVNWVRQPPGRGLEWIGMIWGDGNTDYNSALKSRVTMLKDTSKNQFSLRLSSVTAADTAVYYCARERDYRLDYWGQGSLVTVSSASTKGPSVFPLAPSSKSTSGGTAALGCLVKDYFPEPVTVSWNSGALTSGVHTFPAVLQSSGLYSLSSVVTVPSSSLGTQTYICNVNHKPSNTKVDKKVEPKSCDKTHTCPPCPAPELLGGPSVFLFPPKPKDTLYITREPEVTCVVVDVSHEDPEVKFNWYVDGVEVHNAKTKPREEQYNSTYRVVSVLTVLHQDWLNGKEYKCKVSNKALPAPIEKTISKAKGQPREPQVYTLPPSRDELTKNQVSLTCLVKGFYPSDIAVEWESNGQPENNYKTTPPVLDSDGSFFLYSKLTVDKSRWQQGNVFSCSVMHEALKFHYTQKSLSLSPGK
light: DIQMTQSPSSLSASVGDRVTITCRASGNIHNYLAWYQQKPGKAPKLLIYYTTTLADGVPSRFSGSGSGTDYTFTISSLQPEDIATYYCQHFWSTPRTFGQGTKVEIKRTVAAPSVFIFPPSDEQLKSGTASVVCLLNNFYPREAKVQWKVDNALQSGNSQESVTEQDSKDSTYSLSSTLTLSKADYEKHKVYACEVTHQGLSSPVTKSFNRGEC
notes: Two-armed anti-hen egg lysozyme antibody with an Fc-ABDEG region; Copies of 2 follow from 'bivalent (TA)'

IC50 [2]: 7 nM | fold improvement in FcRn occupancy [3]: 2 fold
B3: one-armed (OA) HEL-ABDEG (antibody, human IgG1, kappa)
heavy: QVQLQESGPGLVRPSQTLSLTCTVSGFSLTGYGVNWVRQPPGRGLEWIGMIWGDGNTDYNSALKSRVTMLKDTSKNQFSLRLSSVTAADTAVYYCARERDYRLDYWGQGSLVTVSSASTKGPSVFPLAPSSKSTSGGTAALGCLVKDYFPEPVTVSWNSGALTSGVHTFPAVLQSSGLYSLSSVVTVPSSSLGTQTYICNVNHKPSNTKVDKKVEPKSCDKTHTCPPCPAPELLGGPSVFLFPPKPKDTLYITREPEVTCVVVDVSHEDPEVKFNWYVDGVEVHNAKTKPREEQYNSTYRVVSVLTVLHQDWLNGKEYKCKVSNKALPAPIEKTISKAKGQPREPQVYTLPPSRDELTKNQVSLWCLVKGFYPSDIAVEWESNGQPENNYKTTPPVLDSDGSFFLYSKLTVDKSRWQQGNVFSCSVMHEALKFHYTQKSLSLSPG
chain: DKTHTCPPCPAPELLGGPSVFLFPPKPKDTLYITREPEVTCVVVDVSHEDPEVKFNWYVDGVEVHNAKTKPREEQYNSTYRVVSVLTVLHQDWLNGKEYKCKVSNKALPAPIEKTISKAKGQPREPQVYTLPPSRDELTKNQVSLSCAVKGFYPSDIAVEWESNGQPENNYKTTPPVLDSDGSFFLVSKLTVDKSRWQQGNVFSCSVMHEALKFHYTQKSLSLSPG
light: B2 light
notes: One anti-HEL Fab joined by a natural IgG1 hinge to the N-terminus of Fc-ABDEG; The Fc is a knob-into-hole heterodimer

IC50 [2]: 6 nM
B4: efgartigimod (other)
chain: DKTHTCPPCPAPELLGGPSVFLFPPKPKDTLYITREPEVTCVVVDVSHEDPEVKFNWYVDGVEVHNAKTKPREEQYNSTYRVVSVLTVLHQDWLNGKEYKCKVSNKALPAPIEKTISKAKGQPREPQVYTLPPSRDELTKNQVSLTCLVKGFYPSDIAVEWESNGQPENNYKTTPPVLDSDGSFFLYSKLTVDKSRWQQGNVFSCSVMHEALKFHYTQKSLSLSPGK
